Data taken from publication doi:10.1101/2025.10.11.681782.

Key:
[1] = molecular target: DosR M194term (helix alpha10 truncated) D54E;del194-217 (Mycobacterium tuberculosis) (UniProt P9WMF9); experiment: EMSA
[2] = molecular target: DosR (D54E, activated form; called DosR/wild type in EMSA) D54E (Mycobacterium tuberculosis) (UniProt P9WMF9); experiment: EMSA

In the case of “GGCGGTTGGCAGACAACAGGGTCAATGGTCCCCAAGTGGATCACCGACGGGCGCGGACAAATGGCCCGCGCTTCGGGGACTTCTGTCCCTAGCCCTGGCCACGATGGGCTGGTCGGATCAAAGGCATCCGTTTCCATCGATTAGGAGGCAGGCACGTACGAAGGAAGGAT (double strand) [hspX promoter PCR product]”, the binding [1] is reported as “binds more weakly” and the binding [2] is reported as “binds”.
